Kd data for two molecules are collected here from patent US20210002330A1 (ASOCIACI N CENTRO DE INVESTIGACI N COOPERATIVA EN …, published 2021).

The target of experiment [1] is T1, fluorescein-labeled Hsp90 peptide (fluorescein label (position not given)).
T1 construct: also called target peptide; C-terminal peptide of Hsp90
T1 peptide: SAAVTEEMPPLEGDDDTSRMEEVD
In words: fluorescence anisotropy; protein titrated into 50 nM fluorescein-labeled Hsp90 peptide. The procedure:
(§1) In addition, the ligand binding activity of the tested proteins was studied by using CC1-CTPR390, CC1-TPR2A, CC1-TPR2A_T332R_D334K proteins and its target peptide. […] Fluorescence intensities were recorded in a Perkin Elmer Fluorimeter equipped with excitation and emission polarizers. Excitation was accomplished with a 5 nm slit width at 492 nm and the emission recorded at 516 nm with slit width of 5 nm. […]
For orientation: Fluorescence polarisation rises when a labelled molecule tumbles more slowly, as on binding a larger partner.

Experiment [2] concerns the target T1, fluorescein-labeled Hsp90 peptide. In words: fluorescence anisotropy with fluorescein-labeled Hsp90 peptide; protein-stabilised gold nanocluster complex. How it is done: as §1
Finally, fluorescence anisotropy was used to monitor the interaction between the CC1-CTPR390-AuNCs, CC1-TPR2A-AuNCs and CC1-TPR2A_T332R_D334K-AuNCs complexes and a fluorescein-labeled Hsp90 peptide to determine the corresponding Kd value.

B1: CC1-CTPR390 (designed binder)
chain: AEAWCNLGCAYYKQGDYDEAIEYYQKALELDPRSACAWYCLGNAYYKQGDYDEAIEYYQKALELDPRSAEAWKNLGNAYYKQGDYQKAIEYYQKALELDPNNASAWYNLGNAYYKQGDYQKAIEYYQKALELDPNNAKAWYRRGNAYYKQGDYQKAIEDYQKALELDPNNAKAKQNLGNAKQKQG
notes: CC1 Cys-clamp module (modules C and C1 fused) joined to the Hsp90 recognition domain CTPR390; Expressed in E. coli and the His tag was cleaved with TEV
Regarding B1, the equilibrium dissociation constant (Kd) in experiment [1] came to 110 µM.

B2: CC1-CTPR390-AuNCs (designed binder)
chain: B1 chain
modifications: gold nanocluster (AuNC) stabilised on the protein (CC1 4-Cys clamp)
notes: also called CC1-CTPR390-AuNCs complex
In experiment [2], B2 had a Kd of around 110 µM.

In general, Kd refers to a measure of binding affinity in units of concentration. A lower Kd goes with a tighter complex.
